For this assay, the target named is GvpT (B. megaterium). The assay is described as follows: SDS-PAGE and Western blot. Background: In western blotting, separated proteins are transferred to a membrane and probed.

In general, stoichiometry N refers to a count of units in the complex or per binding partner. Substance GvpT (natural protein) returned a stoichiometry N of 2.

(Values after doi:10.1101/2023.07.23.550228.)
